According to patent US12590951B2, “Culture medium and culture method for primary cells of intestinal cancer” (PRECEDO PHARMACEUTICALS CO., LTD, priority 2021, dated 2026):

System: primary cells of intestinal cancer
Experiment: Effect of single additives in Basic Medium on proliferation of primary cells of intestinal cancer (cell count)
Format: cell-based, human
Design: key: +: compared with the Basic Medium, the medium added with the additive(s) has the effect of promoting the proliferation of primary cells of intestinal cancer isolated from intestinal cancer tissue in at least two cases; −: the medium added with the additive(s) has the effect of inhibiting the proliferation of primary cells of intestinal cancer isolated from intestinal cancer tissue in at least one case; ∘: the medium added with the additive(s) has no significant effect on the proliferation of primary cells of intestinal cancer isolated from intestinal cancer tissue in at least two cases
Conditions: additive at the final concentration in Basic Medium; samples OE0042 and OE(E)003; 7-10 days; compared with Basic Medium
Procedure: First, Basic Medium was prepared. The formulation of Basic Medium is: DMEM/F12 medium (purchased from Corning)+5 μM Y27632 (purchased from MCE)+5% (v/v) fetal bovine serum (purchased from Excell Bio)+100 μg/mL Primocin (purchased from InvivoGen, 0.2% (v/v), the concentration of commercial product is 50 mg/ml).
Different types of additives (see Table 1) were added to the Basic Medium to prepare the culture mediums for primary cells of intestinal cancer containing different components.
The culture mediums of different components as shown in Table 1 were added into a 48-well plate at a volume of 1 mL/well. Primary cells of intestinal cancer isolated from two cases of intestinal cancer tissues (numbered OE0042 and OE(E)003) according to the above step (2) were inoculated into the 48-well culture plate at a cell density of 3×10^4 cells/well, and were cultured at 37° C., under 5% CO2 concentration. After culturing for 7-10 days, when the cells grew to 85%, the culture medium was discarded, and 100 μL/well of 0.05% trypsin (purchased from Gibco) was used to rinse the cells once. After the trypsin was removed, 200 μL of 0.05% trypsin was added to each well. The plate was then placed in a 37° C., 5% CO2 incubator for 10 minutes, and the cells were observed under a microscope (CNOPTEC, BDS400), showing that the cells had completely digested. 300 μL of DMEM/F12 medium containing 10% serum (Excell Bio, FND500) was added to stop the digestion. 20 μL of the resultant was added into a cell counting plate (Countstar, specification: 50 pieces/box), and the total number of cells was counted with a cell counter (Countstar, IC1000). Specifically, Basic Medium without any additives was used as an experimental control, and the experimental results are shown in Table 1.

| Molecule | Level of promoting cell proliferation |
| --- | --- |
| KGF: medium additive from R&D (protein, UniProt P21781 32-194, looked up) Fibroblast growth factor 7: CNDMTPEQMATNVNCSSPERHTRSYDYMEGGDIRVRRLFCRTQWYLRIDKRGKVKGTQEMKNNYNIMEIRTVAVGIVAIKGVESEFYLAMNKEGKLYAKKECNEDCNFKELILENHYNTYASAKWTHNGGEMFVALNQKGIPVRGKKTKKEQKTAHFLPMAIT | ∘ |
| R-spondin1: medium additive, R-spondin family protein from R&D (protein, UniProt Q2MKA7 21-263, looked up) R-spondin-1: SRGIKGKRQRRISAEGSQACAKGCELCSEVNGCLKCSPKLFILLERNDIRQVGVCLPSCPPGYFDARNPDMNKCIKCKIEHCEACFSHNFCTKCKEGLYLHKGRCYPACPEGSSAANGTMECSSPAQCEMSEWSPWGPCSKKQQLCGFRRGSEERTRRVLHAPVGDHAACSDTKETRRCTVRRVPCPEGQKRRKGGQGRRENANRNLARKESKEAGAGSRRRKGQQQQQQQGTVGPLTSAGPA | ∘ |
| IL-22: medium additive from Peprotech (protein, UniProt Q9GZX6 34-179, looked up) Interleukin-22: APISSHCRLDKSNFQQPYITNRTFMLAKEASLADNNTDVRLIGEKLFHGVSMSERCYLMKQVLNFTLEEVLFPQSDRFQPYMQEVVPFLARLSNRLSTCHIEGDDLHIQRNVQKLKDTVKKLGESGEIKAIGELDLLFMSLRNACI | − |
| FGF10: medium additive from sino biological (protein, UniProt O15520 38-208, looked up) Fibroblast growth factor 10: QALGQDMVSPEATNSSSSSFSSPSSAGRHVRSYNHLQGDVRWRKLFSFTKYFLKIEKNGKVSGTKKENCPYSILEITSVEIGVVAVKAINSNYYLAMNKKGKLYGSKEFNNDCKLKERIEENGYNTYASFNWQHNGRQMYVALNGKGAPRRGQKTRRKNTSAHFLPMVVHS | − |
| Noggin: medium additive from R&D (protein, UniProt Q13253 28-232, looked up) Noggin: QHYLHIRPAPSDNLPLVDLIEHPDPIFDPKEKDLNETLLRSLLGGHYDPGFMATSPPEDRPGGGGGAAGGAEDLAELDQLLRQRPSGAMPSEIKGLEFSEGLAQGKKQRLSKKLRRKLQMWLWSQTFCPVLYAWNDLGSRFWPRYVKVGSCFSKRSCSVPEGMVCKPSKSVHLTVLRWRCQRRGGQRCGWIPIQYPIISECKCSC | ∘ |
